Measurements as given in patent US20260049138A1 (Chugai, published 2026).
Where a chain is given by its changes, count along the chain named. Names and notes keep the numbering of the source.

B1: CE115HA000 A56Y one-arm antibody (antibody, human IgG1, kappa, L234A L235A, N297A, name in Kabat numbering)
heavy: QVQLVESGGGVVQPGRSLRLSCAASGFTFSNAWMHWVRQAPGKGLEWVAQIKAKSNNYYTYYAESVKGRFTISRDDSKNSLYLQMNSLKTEDTAVYYCRYVHYGAYYGVDAWGQGTTVTVSSASTKGPSVFPLAPSSKSTSGGTAALGCLVKDYFPEPVTVSWNSGALTSGVHTFPAVLQSSGLYSLSSVVTVPSSSLGTQTYICNVNHKPSNTKVDKKVEPKSCDKTHTCPPCPAPEAAGGPSVFLFPPKPKDTLMISRTPEVTCVVVDVSHEDPEVKFNWYVDGVEVHNAKTKPREEQYASTYRVVSVLTVLHQDWLNGKEYKCKVSNKALPAPIEKTISKAKGQPREPQVYTLPPSRCELTKNQVSLSCAVKGFYPSDIAVEWESNGQPENNYKTTPPVLDSDGSFFLVSKLTVDKSRWQQGNVFSCSVMHEALHNHYTQKSLSLSPDYKDDDDK
chain: EPKSSDKTHTCPPCPAPELLGGPSVFLFPPKPKDTLMISRTPEVTCVVVDVSHEDPEVKFNWYVDGVEVHNAKTKPREEQYNSTYRVVSVLTVLHQDWLNGKEYKCKVSNKALPAPIEKTISKAKGQPREPQVCTLPPSRDELTKNQVSLWCLVKGFYPSDIAVEWESNGQPENNYKTTPPVLDSDGSFFLYSKLTVDKSRWQQGNVFSCSVMHEALHNRYTQKSLSLSP
light: DIVMTQSPLSLPVTPGEPASISCRSSQSLVHSNRNTYLHWYQQKPGQAPRLLIYKVSNRFSGVPDRFSGSGSGTDFTLKISRVEAEDVGVYYCGQGTQVPYTFGQGTKLEIKRTVAAPSVFIFPPSDEQLKSGTASVVCLLNNFYPREAKVQWKVDNALQSGNSQESVTEQDSKDSTYSLSSTLTLSKADYEKHKVYACEVTHQGLSSPVTKSFNRGEC
B2: CE115HA000 D101G one-arm antibody (antibody, human IgG1, kappa, L234A L235A, N297A, name in Kabat numbering)
heavy: B1 heavy with Y59A, D110G
chain: B1 chain
light: B1 light
B3: CE115HA000 A102Y one-arm antibody (antibody, human IgG1, kappa, L234A L235A, N297A, name in Kabat numbering)
heavy: B1 heavy with Y59A, A111Y
chain: B1 chain
light: B1 light
B4: CE115HA000 D73A one-arm antibody (antibody, human IgG1, kappa, L234A L235A, N297A, name in Kabat numbering)
heavy: B1 heavy with Y59A, D76A
chain: B1 chain
light: B1 light
B5: CE115HA000 D101F one-arm antibody (antibody, human IgG1, kappa, L234A L235A, N297A, name in Kabat numbering)
heavy: B1 heavy with Y59A, D110F
chain: B1 chain
light: B1 light
B6: CE115HA000 A102I one-arm antibody (antibody, human IgG1, kappa, L234A L235A, N297A, name in Kabat numbering)
heavy: B1 heavy with Y59A, A111I
chain: B1 chain
light: B1 light
B7: CE115HA000 A102V one-arm antibody (antibody, human IgG1, kappa, L234A L235A, N297A, name in Kabat numbering)
heavy: B1 heavy with Y59A, A111V
chain: B1 chain
light: B1 light
B8: CE115HA000 D73G one-arm antibody (antibody, human IgG1, kappa, L234A L235A, N297A, name in Kabat numbering)
heavy: B1 heavy with Y59A, D76G
chain: B1 chain
light: B1 light
B9: CE115HA000 D73E one-arm antibody (antibody, human IgG1, kappa, L234A L235A, N297A, name in Kabat numbering)
heavy: B1 heavy with Y59A, D76E
chain: B1 chain
light: B1 light
B10: CE115HA000 A99L one-arm antibody (antibody, human IgG1, kappa, L234A L235A, N297A, name in Kabat numbering)
heavy: B1 heavy with Y59A, A105L
chain: B1 chain
light: B1 light
B11: CE115HA000 A99Y one-arm antibody (antibody, human IgG1, kappa, L234A L235A, N297A, name in Kabat numbering)
heavy: B1 heavy with Y59A, A105Y
chain: B1 chain
light: B1 light
B12: CE115HA000 A60E one-arm antibody (antibody, human IgG1, kappa, L234A L235A, N297A, name in Kabat numbering)
heavy: B1 heavy with Y59A, A63E
chain: B1 chain
light: B1 light
B13: CE115HA000 A99K one-arm antibody (antibody, human IgG1, kappa, L234A L235A, N297A, name in Kabat numbering)
heavy: B1 heavy with Y59A, A105K
chain: B1 chain
light: B1 light
B14: CE115HA000 D101K one-arm antibody (antibody, human IgG1, kappa, L234A L235A, N297A, name in Kabat numbering)
heavy: B1 heavy with Y59A, D110K
chain: B1 chain
light: B1 light
B15: CE115HA000 A99D one-arm antibody (antibody, human IgG1, kappa, L234A L235A, N297A, name in Kabat numbering)
heavy: B1 heavy with Y59A, A105D
chain: B1 chain
light: B1 light
B16: CE115HA000 D101H one-arm antibody (antibody, human IgG1, kappa, L234A L235A, N297A, name in Kabat numbering)
heavy: B1 heavy with Y59A, D110H
chain: B1 chain
light: B1 light
B17: CE115HA000 D73T one-arm antibody (antibody, human IgG1, kappa, L234A L235A, N297A, name in Kabat numbering)
heavy: B1 heavy with Y59A, D76T
chain: B1 chain
light: B1 light
B18: CE115HA000 D72A one-arm antibody (antibody, human IgG1, kappa, L234A L235A, N297A, name in Kabat numbering)
heavy: B1 heavy with Y59A, D75A
chain: B1 chain
light: B1 light
B19: CE115HA000 A102P one-arm antibody (antibody, human IgG1, kappa, L234A L235A, N297A, name in Kabat numbering)
heavy: B1 heavy with Y59A, A111P
chain: B1 chain
light: B1 light
B20: CE115HA000 D73K one-arm antibody (antibody, human IgG1, kappa, L234A L235A, N297A, name in Kabat numbering)
heavy: B1 heavy with Y59A, D76K
chain: B1 chain
light: B1 light
B21: CE115HA000 D72V one-arm antibody (antibody, human IgG1, kappa, L234A L235A, N297A, name in Kabat numbering)
heavy: B1 heavy with Y59A, D75V
chain: B1 chain
light: B1 light
B22: CE115HA000 D101I one-arm antibody (antibody, human IgG1, kappa, L234A L235A, N297A, name in Kabat numbering)
heavy: B1 heavy with Y59A, D110I
chain: B1 chain
light: B1 light
B23: CE115HA000 D72E one-arm antibody (antibody, human IgG1, kappa, L234A L235A, N297A, name in Kabat numbering)
heavy: B1 heavy with Y59A, D75E
chain: B1 chain
light: B1 light
B24: CE115HA000 D73R one-arm antibody (antibody, human IgG1, kappa, L234A L235A, N297A, name in Kabat numbering)
heavy: B1 heavy with Y59A, D76R
chain: B1 chain
light: B1 light
B25: CE115HA000 D73N one-arm antibody (antibody, human IgG1, kappa, L234A L235A, N297A, name in Kabat numbering)
heavy: B1 heavy with Y59A, D76N
chain: B1 chain
light: B1 light
B26: CE115HA000 D101A one-arm antibody (antibody, human IgG1, kappa, L234A L235A, N297A, name in Kabat numbering)
heavy: B1 heavy with Y59A, D110A
chain: B1 chain
light: B1 light
B27: CE115HA000 A60D one-arm antibody (antibody, human IgG1, kappa, L234A L235A, N297A, name in Kabat numbering)
heavy: B1 heavy with Y59A, A63D
chain: B1 chain
light: B1 light
B28: CE115HA000 A99F one-arm antibody (antibody, human IgG1, kappa, L234A L235A, N297A, name in Kabat numbering)
heavy: B1 heavy with Y59A, A105F
chain: B1 chain
light: B1 light
B29: CE115HA000 A99Q one-arm antibody (antibody, human IgG1, kappa, L234A L235A, N297A, name in Kabat numbering)
heavy: B1 heavy with Y59A, A105Q
chain: B1 chain
light: B1 light
B30: CE115HA000 D101L one-arm antibody (antibody, human IgG1, kappa, L234A L235A, N297A, name in Kabat numbering)
heavy: B1 heavy with Y59A, D110L
chain: B1 chain
light: B1 light
B31: CE115HA000 A99S one-arm antibody (antibody, human IgG1, kappa, L234A L235A, N297A, name in Kabat numbering)
heavy: B1 heavy with Y59A, A105S
chain: B1 chain
light: B1 light
B32: CE115HA000 A99T one-arm antibody (antibody, human IgG1, kappa, L234A L235A, N297A, name in Kabat numbering)
heavy: B1 heavy with Y59A, A105T
chain: B1 chain
light: B1 light

biological target: T1, CD3ε homodimer protein (human, UniProt P07766 23-126, limits assumed, sulfo-tag or biotin label in the ECL assays; amine-coupled to the chip in SPR); experiment: SPR Biacore T200; CD3ε homodimer on CM4 chip;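 also: Single-residue variant antibodies injected as analyte over CD3ε homodimer immobilized by amine coupling, run at 25 °C in HBS-EP+ buffer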
T1 construct: also called human CD3ε homodimer protein; CD3 (CD3ε)
T1 sequence (P07766 23-126 limits assumed): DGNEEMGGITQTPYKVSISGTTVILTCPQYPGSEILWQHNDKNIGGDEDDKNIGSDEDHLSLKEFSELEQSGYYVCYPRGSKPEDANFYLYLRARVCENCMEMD

| Binder | ratio of amounts bound Z=Y/X (altered form / CE115HA000) |
| --- | --- |
| B1 | 0.66 |
| B2 | 1.38 |
| B3 | 0.91 |
| B4 | 0.83 |
| B5 | 0.75 |
| B6 | 1.48 |
| B7 | 1.43 |
| B8 | 1.07 |
| B9 | 0.73 |
| B10 | 1.13 |
| B11 | 1.59 |
| B12 | 0.94 |
| B13 | 1.48 |
| B14 | 0.63 |
| B15 | 0.28 |
| B16 | 1.21 |

| Binder | ratio of amounts bound Z=Y/X (altered form / CE115HA000) |
| --- | --- |
| B17 | 0.63 |
| B18 | 1.41 |
| B19 | 0.14 |
| B20 | 0.87 |
| B21 | 1.43 |
| B22 | 1.18 |
| B23 | 1.05 |
| B24 | 1.04 |
| B25 | 0.94 |
| B26 | 1.26 |
| B27 | 0.99 |
| B28 | 1.43 |
| B29 | 0.91 |
| B30 | 0.62 |
| B31 | 0.82 |
| B32 | 0.84 |
